Here are results for one protein from article PMC6379061 (Nature, 2018).

This data set deals with the molecule itself. The data set can be described thus: cryo-EM structure.

B1: human ABCG2 E211Q mutant (ABCG2EQ) (natural protein)
chain: MSSSNVEVFIPVSQGNTNGFPATASNDLKAFTEGAVLSFHNICYRVKLKSGFLPCRKPVEKEILSNINGIMKPGLNAILGPTGGGKSSLLDVLAARKDPSGLSGDVLINGAPRPANFKCNSGYVVQDDVVMGTLTVRENLQFSAALRLATTMTNHEKNERINRVIQELGLDKVADSKVGTQFIRGVSGGERKRTSIGMELITDPSILFLDQPTTGLDSSTANAVLLLLKRMSKQGRTIIFSIHQPRYSIFKLFDSLTLLASGRLMFHGPAQEALGYFESAGYHCEAYNNPADFFLDIINGDSTAVALNREEDFKATEIIEPSKQDKPLIEKLAEIYVNSSFYKETKAELHQLSGGEKKKKITVFKEISYTTSFCHQLRWVSKRSFKNLLGNPQASIAQIIVTVVLGLVIGAIYFGLKNDSTGIQNRAGVLFFLTTNQCFSSVSAVELFVVEKKLFIHEYISGYYRVSSYFLGKLLSDLLPMRMLPSIIFTCIVYFMLGLKPKADAFFVMMFTLMMVAYSASSMALAIAAGQSVVSVATLLMTICFVFMMIFSGLLVNLTTIASWLSWLQYFSIPRYGFTALQHNEFLGQNFCPGLNATGNNPCNYATCTGEEYLVKQGIDLSPWGLWKNHVALACMIVIFLTIAYLKLLFLKKYS
Regarding B1, the binding result is listed as “binds”.
